Test results from US20130344055A1, “ANTIMICROBIAL AGENTS” (priority 2010, published 2013).

Assays:
[1] = system: P. aeruginosa PAO1p cells; assay: Antimicrobial activity of different peptide stretches; conditions: 30 minutes at room temperature; for Antimicrobial effects against P. aeruginosa (relative inactivation): peptide at 3 μM/L (equimolar to AMP)
Method: The bacteria colonies on the agar plates were counted after an overnight incubation at 37° C. Based on the counted cell numbers the antibacterial activity as the relative inactivation in logarithmic units (=log 10N0/Ni with N0=number of untreated cells (of the control) and Ni=number of treated cells, both counted after incubation) is calculated. The reduction in the number of bacteria colonies after treatment with a peptide stretch is indicative for an antimicrobial activity of the peptide stretch, because the bacterial cells are lysed due to the treatment with the peptide stretch. All samples were replicated in four fold.

[2] = system: Salmonella bacteria; assay: In vitro antibacterial activity of STM0016 fusion variants; assay type: cell-based; conditions: with EDTA 0.5 mM; 10^6 cells/ml; 30 minutes at RT
Method: Exponential growing Gram-negative bacterial cells (OD600 nm=0.6) were 100-fold diluted to a final density of about 10^6 cells/ml in 5 mM HEPES pH 7.4 and incubated for 30 minutes at room temperature without shaking with the different modified OBPgpLYS variants (in Elution Buffer in an end concentration of 1500 nM). After incubation cell suspensions and as a control untreated bacterial cells without any added modified OBPgpLYS variant were diluted three times (respectively 10^5-10^4-10^3 cells/ml) in 1× concentrated PBS buffer and 100 μl of each dilution was plated out on LB-medium. […] All samples were replicated in threefold. Averages +/− standard deviations are represented.
The purification of the fusion proteins and the antimicrobial activity assay was performed as described in Example 1.

[3] = system: Listeria bacteria; assay: In vitro antibacterial activity of Ply511 fusion variants; assay type: cell-based; conditions: with EDTA 0.5 mM; 10^6 cells/ml; 30 minutes at RT
[4] = system: Streptococcus bacteria; assay: In vitro antibacterial activity of Cpl1 fusion variants; assay type: cell-based; conditions: with EDTA 0.5 mM; 10^6 cells/ml; 30 minutes at RT

Molecule: PK2: polycationic peptide KRKKRKKRKRSKRKKRKKRK
- Antimicrobial activity against P. aeruginosa (relative inactivation) [1]: same antimicrobial activity against P. aeruginosa as SMAP-29 used in a concentration of 3 mmol/L
- Antimicrobial effects against P. aeruginosa (relative inactivation) [1]: no or only minor antimicrobial effects

Molecule: PK: polycationic peptide KRKKRKKRK
- Antimicrobial effects against P. aeruginosa (relative inactivation) [1]: no or only minor antimicrobial effects

Molecule: STM0016-Melittin: STM0016 fusion variant with one peptide stretch, Melittin
- Average log reduction, Salmonella [2]: +/− (+/−: <1 log)

B1: STM0016-LL37: STM0016 fusion variant with one peptide stretch, LL37 (protein)
chain: MNPIIDGIIALEGGYVFNPKDKGGATHWGITEATARAHGYAGDMRDLTHAEAYAILEEDYWIKPGFDVISTLSWPVSFELCDAAVNIGAYHPSAWLQRWLNVFNHEGKRYPDIHVDGNIGPRTLAALEHYLAWRGQEGEAVLVKALNCSQGTYYLNVAEKNHNNEQFIYGWIKNRVTLLGDFFRKSKEKIGKEFKRIVQRIKDFLRNLVPRTES
- Average log reduction, Salmonella [2]: + (+: 1 log)

B2: P1y511: endolysin Ply511 (protein)
chain: MVKYTVENKIIAGLPKGKLKGANFVIAHETANSKSTIDNEVSYMTRNWKNAFVTHFVGGGGRVVQVANVNYVSWGAGQYANSYSYAQVELCRTSNATTFKKDYEVYCQLLVDLAKKAGIPITLDSGSKTSDKGIKSHKWVADKLGGTTHQDPYAYLSSWGISKAQFASDLAKVSGGGNTGTAPAKPSTPAPKPSTPSTNLDKLGLVDYMNAKKMDSSYSNRDKLAKQYGIANYSGTASQNTTLLSKIKGGAPKPSTPAPKPSTSTAKKIYFPPNKGNWSVYPTNKAPVKANAIGAINPTKFGGLTYTIQKDRGNGVYEIQTDQFGRVQVYGAPSTGAVIKK
modifications: Listeria monocytogenes Phage A511
notes: endolysin Ply511
- Average log reduction, Listeria [3]: + (+: 1 log)

B3: P1y511-BuforinII: Ply511 fusion variant with one peptide stretch, Buforin II (protein)
chain: MVKYTVENKIIAGLPKGKLKGANFVIAHETANSKSTIDNEVSYMTRNWKNAFVTHFVGGGGRVVQVANVNYVSWGAGQYANSYSYAQVELCRTSNATTFKKDYEVYCQLLVDLAKKAGIPITLDSGSKTSDKGIKSHKWVADKLGGTTHQDPYAYLSSWGISKAQFASDLAKVSGGGNTGTAPAKPSTPAPKPSTPSTNLDKLGLVDYMNAKKMDSSYSNRDKLAKQYGIANYSGTASQNTTLLSKIKGGAPKPSTPAPKPSTSTAKKIYFPPNKGNWSVYPTNKAPVKANAIGAINPTKFGGLTYTIQKDRGNGVYEIQTDQFGRVQVYGAPSTGAVIKKTRSSRAGLQFPVGRVHRLLRK
- Average log reduction, Listeria [3]: ++ (++: 2-3 log)

B4: Cpl1-Pseudin1-Indolicidin: Cpl1 with Pseudin1 C-terminal of the enzyme, followed by Indolicidin (protein)
chain: MVKKNDLFVDVSSHNGYDITGILEQMGTTNTIIKISESTTYLNPCLSAQVEQSNPIGFYHFARFGGDVAEAEREAQFFLDNVPMQVKYLVLDYEDDPSGDAQANTNACLRFMQMIADAGYKPIYYSYKPFTHDNVDYQQILAQFPNSLWIAGYGLNDGTANFEYFPSMDGIRWWQYSSNPFDKNIVLLDDEEDDKPKTAGTWKQDSKGWWFRRNNGSFPYNKWEKIGGVWYYFDSKGYCLTSEWLKDNEKWYYLKDNGAMATGWVLVGSEWYYMDDSGAMVTGWVKYKNNWYYMTNERGNMVSNEFIKSGKGWYFMNTNGELADNPSFTKEPDGLITVAGLNTLKKVFQGLHEAIKLINNHVQILPWKWPWWPWRR
- Average log reduction, Streptococcus [4]: +++ (+++: 4 or more logs)

B5: P1y511-Magainin: Ply511 fusion variant with one peptide stretch, Magainin (protein)
chain: MVKYTVENKIIAGLPKGKLKGANFVIAHETANSKSTIDNEVSYMTRNWKNAFVTHFVGGGGRVVQVANVNYVSWGAGQYANSYSYAQVELCRTSNATTFKKDYEVYCQLLVDLAKKAGIPITLDSGSKTSDKGIKSHKWVADKLGGTTHQDPYAYLSSWGISKAQFASDLAKVSGGGNTGTAPAKPSTPAPKPSTPSTNLDKLGLVDYMNAKKMDSSYSNRDKLAKQYGIANYSGTASQNTTLLSKIKGGAPKPSTPAPKPSTSTAKKIYFPPNKGNWSVYPTNKAPVKANAIGAINPTKFGGLTYTIQKDRGNGVYEIQTDQFGRVQVYGAPSTGAVIKKGIGKFLHSAKKFGKAFVGEIMNS
- Average log reduction, Listeria [3]: ++ (++: 2-3 log)

B6: P1y511-BuforinII-Magainin: Ply511 with Buforin II C-terminal of the enzyme, followed by Magainin (protein)
chain: MVKYTVENKIIAGLPKGKLKGANFVIAHETANSKSTIDNEVSYMTRNWKNAFVTHFVGGGGRVVQVANVNYVSWGAGQYANSYSYAQVELCRTSNATTFKKDYEVYCQLLVDLAKKAGIPITLDSGSKTSDKGIKSHKWVADKLGGTTHQDPYAYLSSWGISKAQFASDLAKVSGGGNTGTAPAKPSTPAPKPSTPSTNLDKLGLVDYMNAKKMDSSYSNRDKLAKQYGIANYSGTASQNTTLLSKIKGGAPKPSTPAPKPSTSTAKKIYFPPNKGNWSVYPTNKAPVKANAIGAINPTKFGGLTYTIQKDRGNGVYEIQTDQFGRVQVYGAPSTGAVIKKTRSSRAGLQFPVGRVHRLLRKGIGKFLHSAKKFGKAFVGEIMNS
- Average log reduction, Listeria [3]: +++ (+++: 4 or more logs)
